In paper doi:10.1101/2024.03.21.586151 one finds rate of FRET change after EGTA, fast phase (release of Ca^2+ from the N-domain) data, which are given here for 1 substance.

The target in this assay is CaM(C110)D with an IAEDANS probe coupled to position 110 (UniProt P0DP23). Description: FRET or BRET. On the technique in general: BRET reads energy transfer from a luciferase to a nearby fluorophore.

Consider “CKIIp with a C-terminal Gly-Cys extension labeled with DDPM (peptide)”, for which the rate of FRET change after EGTA, fast phase (release of Ca^2+ from the N-domain) was found to be 5.8 s⁻¹.
